Data on 15 molecules can be found in patent publication US11278600B2, “Human alpha-galactosidase variants” (Codexis, Inc., priority 2014, dated 2022).

Holding throughout (format): biochemical
A short description of data set [1]: HTP-analysis of supernatants pretreated with acid (MUGal hydrolysis). As to conditions: activity of the variant/activity of Rd4BB (SEQ ID NO: 15); challenge at pH 3.7. The gist of the method: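 Yeast INVSc1 supernatant, GLA variants; acid challenge: McIlvaine pH 3.3-4.3, 37° C., 1-3 h. Assay: MUGal in McIlvaine pH 4.8 plus citrate pH 4.3, 37° C., 30-180 min, Na2CO3 stop, Ex 355/Em 448 nm.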

Data set [2] can be described thus: HTP-analysis of supernatants pretreated with base (MUGal hydrolysis). As to conditions: activity of the variant/activity of Rd4BB (SEQ ID NO: 15); challenge at pH 9.65. The method, boiled down:
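GLA variants were secreted by transformed INVSc1 yeast grown 66-84 h at 30° C. Supernatants were exposed to neutral-to-basic buffers (pH 7.0-9.7) at 37° C for 1-18 h, then assayed with MUGal in acidic citrate/McIlvaine buffer, with fluorescence read after quenching.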

Data set [3] is described as follows: HTP-analysis of yeast culture supernatants, no challenge (MUGal hydrolysis). The settings on record: activity of the variant/activity of Rd4BB (SEQ ID NO: 15). The method, boiled down: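 GLA variants were expressed in INVSc1 yeast grown in SD-Ura broth with glucose at 30° C., and culture supernatants were collected after 66-84 h. Supernatant was mixed with McIlvaine buffer pH 4.8 and MUGal (2 mM stock) in 50 mM citrate, 200 mM KCl, pH 4.6, incubated at 37° C. for 30-180 minutes, then quenched with sodium carbonate.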

Changes are numbered by the printed parent chain.

B1: 365 (protein)
chain: LDNGLARTPTMGWLHWERFMCNLDCQEEPDSCISEKLFMEMAERMVNEGWKDAGYEYLCIDDCWMAPQRDSEGRLQADPQRFPHGIRQLANYVHSKGLKLGIYADVGNKTCAGFPGSFGYYDIDAQTFADWGVDLLKFDGCYCDSLENLADGYKHMSLALNRTGRSIVYSCEWPLYMWPFQKPNYTEIRQYCNHWRNFADIDDSWKSIKSILDWTSRNQERIVDVAGPGGWNDPDMLVIGNFGLSWDQQVTQMALWAIMAAPLFMSNDLRHISPQAKALLQDKDVIAINQDPLGKQGYQLRKGDNFEVWERPLSGDAWAVAIINRQEIGGPRSYTIPVASLGKGVACNPACFITQLLPVKRQLGFYNWTSRLKSHINPTGTVLLQLENTMQMSLKDLL
modifications: Synthetic Polypeptide sequence of Variant No. 365 of mature Human GLA
For B1, the “Relative Activity of GLA Variants After Challenge at pH 3.7” value (shortened to “Relative Activity … at pH 3.7”) in data set [1] is on record as “+ (0.5 to 1.5 relative activity over Rd4BB (SEQ ID NO: 15))”. Also, the “Relative Activity of GLA Variants After Challenge at pH 9.65” value (shortened to “Relative Activity … at pH 9.65”) in data set [2] is on record as “+ (0.5 to 1.5 relative activity over Rd4BB (SEQ ID NO: 15))”. Also, the “Relative Activity of GLA Variants After No Challenge (NC)” value in data set [3] is reported as “+ (0.5 to 1.5 relative activity over Rd4BB (SEQ ID NO: 15))”.

B2: 443 (protein)
chain: B1 chain with N47S, K206A, L255S
modifications: Synthetic Polypeptide sequence of Variant No. 443 of mature Human GLA
In the case of B2, the “Relative Activity … at pH 3.7” value in data set [1] was “+++ (>2.5 relative activity over Rd4BB (SEQ ID NO: 15))”. Besides, the “Relative Activity … at pH 9.65” value in data set [2] is “− (<0.5 relative activity over Rd4BB (SEQ ID NO: 15))”. In data set [3], the “Relative Activity of GLA Variants After No Challenge (NC)” value is “+ (0.5 to 1.5 relative activity over Rd4BB (SEQ ID NO: 15))”.

B3: 446 (protein)
chain: B1 chain with N47S, M259A
modifications: Synthetic Polypeptide sequence of Variant No. 446 of mature Human GLA
On to B3, for which the “Relative Activity … at pH 3.7” value in data set [1] is listed as “− (<0.5 relative activity over Rd4BB (SEQ ID NO: 15))”. In addition, in data set [2], the “Relative Activity … at pH 9.65” value is “− (<0.5 relative activity over Rd4BB (SEQ ID NO: 15))”. Moreover, in data set [3], the “Relative Activity of GLA Variants After No Challenge (NC)” value is reported as “+ (0.5 to 1.5 relative activity over Rd4BB (SEQ ID NO: 15))”.

B4: 442 (protein)
chain: B1 chain with N47S, L255A
modifications: Synthetic Polypeptide sequence of Variant No. 442 of mature Human GLA
B4: in data set [1], the “Relative Activity … at pH 3.7” value was “+ (0.5 to 1.5 relative activity over Rd4BB (SEQ ID NO: 15))”. Also, the “Relative Activity … at pH 9.65” value in data set [2] is given as “− (<0.5 relative activity over Rd4BB (SEQ ID NO: 15))”. Moreover, in data set [3], the “Relative Activity of GLA Variants After No Challenge (NC)” value is “+ (0.5 to 1.5 relative activity over Rd4BB (SEQ ID NO: 15))”.

B5: 444 (protein)
chain: B1 chain with N47S, M259W
modifications: Synthetic Polypeptide sequence of Variant No. 444 of mature Human GLA
Consider B5, for which the “Relative Activity … at pH 3.7” value in data set [1] is listed as “− (<0.5 relative activity over Rd4BB (SEQ ID NO: 15))”. The “Relative Activity … at pH 9.65” value in data set [2] is listed as “+ (0.5 to 1.5 relative activity over Rd4BB (SEQ ID NO: 15))”. In data set [3], the “Relative Activity of GLA Variants After No Challenge (NC)” value is reported as “+ (0.5 to 1.5 relative activity over Rd4BB (SEQ ID NO: 15))”.

B6: 440 (protein)
chain: B1 chain with N47S, L263C
modifications: Synthetic Polypeptide sequence of Variant No. 440 of mature Human GLA
As to B6, the “Relative Activity … at pH 3.7” value in data set [1] is “+ (0.5 to 1.5 relative activity over Rd4BB (SEQ ID NO: 15))”. Also, in data set [2], the “Relative Activity … at pH 9.65” value is listed as “− (<0.5 relative activity over Rd4BB (SEQ ID NO: 15))”. Moreover, in data set [3], the “Relative Activity of GLA Variants After No Challenge (NC)” value was “+ (0.5 to 1.5 relative activity over Rd4BB (SEQ ID NO: 15))”.

B7: 447 (protein)
chain: B1 chain with N47S, L263W
modifications: Synthetic Polypeptide sequence of Variant No. 447 of mature Human GLA
Turning to B7, the “Relative Activity … at pH 3.7” value in data set [1] is reported as “− (<0.5 relative activity over Rd4BB (SEQ ID NO: 15))”. Further, the “Relative Activity … at pH 9.65” value in data set [2] is on record as “− (<0.5 relative activity over Rd4BB (SEQ ID NO: 15))”. Moreover, in data set [3], the “Relative Activity of GLA Variants After No Challenge (NC)” value is on record as “+ (0.5 to 1.5 relative activity over Rd4BB (SEQ ID NO: 15))”.

B8: 366 (protein)
chain: B1 chain with N47V
modifications: Synthetic Polypeptide sequence of Variant No. 366 of mature Human GLA
In the case of B8, the “Relative Activity … at pH 3.7” value in data set [1] was “+ (0.5 to 1.5 relative activity over Rd4BB (SEQ ID NO: 15))”. For the same molecule, in data set [2], the “Relative Activity … at pH 9.65” value is “+ (0.5 to 1.5 relative activity over Rd4BB (SEQ ID NO: 15))”. In data set [3], the “Relative Activity of GLA Variants After No Challenge (NC)” value was “+ (0.5 to 1.5 relative activity over Rd4BB (SEQ ID NO: 15))”.

B9: 445 (protein)
chain: B1 chain with N47S, L263F
modifications: Synthetic Polypeptide sequence of Variant No. 445 of mature Human GLA
Consider B9, for which the “Relative Activity … at pH 3.7” value in data set [1] is “+ (0.5 to 1.5 relative activity over Rd4BB (SEQ ID NO: 15))”. Further, the “Relative Activity … at pH 9.65” value in data set [2] is given as “− (<0.5 relative activity over Rd4BB (SEQ ID NO: 15))”. The “Relative Activity of GLA Variants After No Challenge (NC)” value in data set [3] was “+ (0.5 to 1.5 relative activity over Rd4BB (SEQ ID NO: 15))”.

B10: 450 (protein)
chain: B1 chain with N47S, I258M
modifications: Synthetic Polypeptide sequence of Variant No. 450 of mature Human GLA
As for B10, the “Relative Activity … at pH 3.7” value in data set [1] is reported as “++ (>1.5 to 2.5 relative activity over Rd4BB (SEQ ID NO: 15))”. For the same molecule, in data set [2], the “Relative Activity … at pH 9.65” value was “− (<0.5 relative activity over Rd4BB (SEQ ID NO: 15))”. The “Relative Activity of GLA Variants After No Challenge (NC)” value in data set [3] was “+ (0.5 to 1.5 relative activity over Rd4BB (SEQ ID NO: 15))”.

B11: 451 (protein)
chain: B1 chain with N47S, M259V
modifications: Synthetic Polypeptide sequence of Variant No. 451 of mature Human GLA
On to B11, for which the “Relative Activity … at pH 3.7” value in data set [1] was “++ (>1.5 to 2.5 relative activity over Rd4BB (SEQ ID NO: 15))”. In data set [2], the “Relative Activity … at pH 9.65” value is given as “− (<0.5 relative activity over Rd4BB (SEQ ID NO: 15))”. In data set [3], the “Relative Activity of GLA Variants After No Challenge (NC)” value is given as “+ (0.5 to 1.5 relative activity over Rd4BB (SEQ ID NO: 15))”.

B12: 441 (protein)
chain: B1 chain with N47S, H271V
modifications: Synthetic Polypeptide sequence of Variant No. 441 of mature Human GLA
B12: the “Relative Activity … at pH 3.7” value in data set [1] is given as “− (<0.5 relative activity over Rd4BB (SEQ ID NO: 15))”. In addition, the “Relative Activity … at pH 9.65” value in data set [2] was “+ (0.5 to 1.5 relative activity over Rd4BB (SEQ ID NO: 15))”. In data set [3], the “Relative Activity of GLA Variants After No Challenge (NC)” value is listed as “+ (0.5 to 1.5 relative activity over Rd4BB (SEQ ID NO: 15))”.

B13: 448 (protein)
chain: B1 chain with N47S, R270Q
modifications: Synthetic Polypeptide sequence of Variant No. 448 of mature Human GLA
For the molecule B13, the “Relative Activity … at pH 3.7” value in data set [1] is listed as “− (<0.5 relative activity over Rd4BB (SEQ ID NO: 15))”. For the same molecule, the “Relative Activity … at pH 9.65” value in data set [2] was “− (<0.5 relative activity over Rd4BB (SEQ ID NO: 15))”. Moreover, in data set [3], the “Relative Activity of GLA Variants After No Challenge (NC)” value is reported as “+ (0.5 to 1.5 relative activity over Rd4BB (SEQ ID NO: 15))”.

B14: 449 (protein)
chain: B1 chain with N47S, L255T
modifications: Synthetic Polypeptide sequence of Variant No. 449 of mature Human GLA
For the molecule B14, the “Relative Activity … at pH 3.7” value in data set [1] was “++ (>1.5 to 2.5 relative activity over Rd4BB (SEQ ID NO: 15))”. For the same molecule, the “Relative Activity … at pH 9.65” value in data set [2] is recorded as “− (<0.5 relative activity over Rd4BB (SEQ ID NO: 15))”. In addition, the “Relative Activity of GLA Variants After No Challenge (NC)” value in data set [3] is on record as “+ (0.5 to 1.5 relative activity over Rd4BB (SEQ ID NO: 15))”.

B15: 439 (protein)
chain: B1 chain with N47S, H271A
modifications: Synthetic Polypeptide sequence of Variant No. 439 of mature Human GLA
In the case of B15, the “Relative Activity … at pH 3.7” value in data set [1] is “+ (0.5 to 1.5 relative activity over Rd4BB (SEQ ID NO: 15))”. For the same molecule, the “Relative Activity … at pH 9.65” value in data set [2] was “+ (0.5 to 1.5 relative activity over Rd4BB (SEQ ID NO: 15))”. In addition, in data set [3], the “Relative Activity of GLA Variants After No Challenge (NC)” value is “+ (0.5 to 1.5 relative activity over Rd4BB (SEQ ID NO: 15))”.
